Reference: the RNAGym collection of RNA variant scans (doi:10.1101/gr.219683.116)

B1: mRNA-splicing (parent)
chain: AGUUGCUGCUGGGAGCUCCAGCACAGUGAAAUGGACAGAAGGGCAGAGCAA

Variants of: B1
Assay: exon inclusion enrichment index; higher = more inclusion; WT1 exon 5 minigene, HEK293

Row | Variant | exon inclusion enrichment index
1 | AGUUACCACCGGGAGCUCCAGCACAGUGAAAUGGACAGACUGGCAGAGCAA [G5A U7C G8A U10C A40C G41U] | 1.28
2 | AGUUACCACCGGGAGCUCCAGGGCAGUGAAAUGGACAGAAGGGCAGAGCAA [G5A U7C G8A U10C C22G A23G] | 1.4
3 | AGUUACCACCGGGAGCUCCAGGCCAGUGAAAUGGACAGAAGGGCAGAGCAA [G5A U7C G8A U10C C22G A23C] | 1.24
4 | AGUUACCACCGGGAGCUCCAGGUCAGUGAAAUGGACAGAAGGGCAGAGCAA [G5A U7C G8A U10C C22G A23U] | 0.522
5 | AGUUACCACCGGGAGCUCCAGCACAGUGAAAUGGACAGUCGGGCAGAGCAA [G5A U7C G8A U10C A39U A40C] | 2.41
6 | AGUUACCACCGGGAGCUCCAGCACAGUGAAAUGGACAGUUGGGCAGAGCAA [G5A U7C G8A U10C A39U A40U] | 1.02
7 | AGUUACCACCGGGAGCUCCAGCACAGUGAAAUGGACAGUGGGGCAGAGCAA [G5A U7C G8A U10C A39U A40G] | 0.575
8 | AGUUACCACCGGGAGCUCCAGCAACGUGAAAUGGACAGAAGGGCAGAGCAA [G5A U7C G8A U10C C24A A25C] | 3.6
9 | AGUUACCACCGGGAGCUCCAGCAAGGUGAAAUGGACAGAAGGGCAGAGCAA [G5A U7C G8A U10C C24A A25G] | 2.4
10 | AGUUACCACCGGGAGCUCCAGCAAUGUGAAAUGGACAGAAGGGCAGAGCAA [G5A U7C G8A U10C C24A A25U] | 2.06
11 | AGUUACCACCGGGAGCUCCAGCACAGUGAAAUGGACAGAAGGGCAGCACAA [G5A U7C G8A U10C A47C G48A] | 1.74
12 | AGUUACCACCGGGAGCUCCAGCACAGUGAAAUGGACAGAAGGGCAGCCCAA [G5A U7C G8A U10C A47C G48C] | 2.06
13 | AGUUACCACCGGGAGCUCCAGCACAGUGAAAUGGACAGAAGGGCAGCUCAA [G5A U7C G8A U10C A47C G48U] | 2.34
14 | AGUUACCACCGGGAGCUCCAGUCCAGUGAAAUGGACAGAAGGGCAGAGCAA [G5A U7C G8A U10C C22U A23C] | 1.42
15 | AGUUACCACCGGGAGCUCCAGUUCAGUGAAAUGGACAGAAGGGCAGAGCAA [G5A U7C G8A U10C C22U A23U] | 1.53
16 | AGUUACCACCGGGAGCUCCAGUGCAGUGAAAUGGACAGAAGGGCAGAGCAA [G5A U7C G8A U10C C22U A23G] | 2.69
17 | AGUUACCACCGGGAGCUCCAGCACAGUGAAAUGGACAGGAGGGCAGAGCAA [G5A U7C G8A U10C A39G] | 1.33
18 | AGUUACCACCGGGAGCUCCAGCACAGUGAAAUGGACAGCAGGGCAGAGCAA [G5A U7C G8A U10C A39C] | 0.541
19 | AGUUACCACCGGGAGCUCCAGCACAGUGAAAUGGACAGUAGGGCAGAGCAA [G5A U7C G8A U10C A39U] | 0.113
20 | AGUUACCACCGGGAGCUCCAGCACAGUGAAAUGGACAGAAGGGCAGUGCAA [G5A U7C G8A U10C A47U] | 2
21 | AGUUACCACCGGGAGCUCCAGCACAGUGAAAUGGACAGAAGGGCAGCGCAA [G5A U7C G8A U10C A47C] | 2.83
22 | AGUUACCACCGGGAGCUCCAGCACAGUGAAAUGGACAGAAGGGCAGGGCAA [G5A U7C G8A U10C A47G] | 0.395
23 | AGUUACCACCGGGAGCUCGUGCACAGUGAAAUGGACAGAAGGGCAGAGCAA [G5A U7C G8A U10C C19G A20U] | 2.09
24 | AGUUACCACCGGGAGCUCGGGCACAGUGAAAUGGACAGAAGGGCAGAGCAA [G5A U7C G8A U10C C19G A20G] | 1.34
25 | AGUUACCACCGGGAGCUCGCGCACAGUGAAAUGGACAGAAGGGCAGAGCAA [G5A U7C G8A U10C C19G A20C] | 2.4
26 | AGUUACCACCGGGAGCUGAAGCACAGUGAAAUGGACAGAAGGGCAGAGCAA [G5A U7C G8A U10C C18G C19A] | 2.92

Row | Variant | exon inclusion enrichment index
27 | AGUUACCACCGGGAGCUGUAGCACAGUGAAAUGGACAGAAGGGCAGAGCAA [G5A U7C G8A U10C C18G C19U] | 0.528
28 | AGUUACCACCGGGAGCUGGAGCACAGUGAAAUGGACAGAAGGGCAGAGCAA [G5A U7C G8A U10C C18G C19G] | 2.62
29 | AGUUACCACCGGGAGCUCAUGCACAGUGAAAUGGACAGAAGGGCAGAGCAA [G5A U7C G8A U10C C19A A20U] | 0.815
30 | AGUUACCACCGGGAGCUCACGCACAGUGAAAUGGACAGAAGGGCAGAGCAA [G5A U7C G8A U10C C19A A20C] | 1.38
31 | AGUUACCACCGGGAGCUCAGGCACAGUGAAAUGGACAGAAGGGCAGAGCAA [G5A U7C G8A U10C C19A A20G] | 0.441
32 | AGUUACCACCGGGAGCUCCAGCAAAGUGAAAUGGACAGAAGGGCAGAGCAA [G5A U7C G8A U10C C24A] | 2.26
33 | AGUUACCACCGGGAGCUCCAGCAGAGUGAAAUGGACAGAAGGGCAGAGCAA [G5A U7C G8A U10C C24G] | 2.53
34 | AGUUACCACCGGGAGCUCCAGAACAGUGAAAUGGACAGAAGGGCAGAGCAA [G5A U7C G8A U10C C22A] | 2.32
35 | AGUUACCACCGGGAGCUCCAGUACAGUGAAAUGGACAGAAGGGCAGAGCAA [G5A U7C G8A U10C C22U] | 2.11
36 | AGUUACCACCGGGAGCUCCAGGACAGUGAAAUGGACAGAAGGGCAGAGCAA [G5A U7C G8A U10C C22G] | 3.37
37 | AGUUACCACCGGGAGGUCCAGCACAGUGAAAUGGACAGAAGGGCAGAGCAA [G5A U7C G8A U10C C16G] | 1.39
38 | AGUUACCACCGGGAGAUCCAGCACAGUGAAAUGGACAGAAGGGCAGAGCAA [G5A U7C G8A U10C C16A] | 2.46
39 | AGUUACCACCGGGAGUUCCAGCACAGUGAAAUGGACAGAAGGGCAGAGCAA [G5A U7C G8A U10C C16U] | 2.53
40 | AGUUACCACCGGGAGCUCCAGCACAGUGAAAUGGACAGAAGGGCAGUCCAA [G5A U7C G8A U10C A47U G48C] | 1.6
41 | AGUUACCACCGGGAGCUCCAGCACAGUGAAAUGGACAGAAGGGCAGUACAA [G5A U7C G8A U10C A47U G48A] | 1.85
42 | AGUUACCACCGGGAGCUCCAGCACAGUGAAAUGGACAGAAGGGCAGUUCAA [G5A U7C G8A U10C A47U G48U] | 1.85
43 | AGUUACCACCGGGAGCUCCAGCACAGUGAAAUGGACAGAGAGGCAGAGCAA [G5A U7C G8A U10C A40G G41A] | 1.12
44 | AGUUACCACCGGGAGCUCCAGCACAGUGAAAUGGACAGAGCGGCAGAGCAA [G5A U7C G8A U10C A40G G41C] | 3.76
45 | AGUUACCACCGGGAGCUCCAGCACAGUGAAAUGGACAGAGUGGCAGAGCAA [G5A U7C G8A U10C A40G G41U] | 1.79
46 | AGUUACCACCGGGAGCUGCAGCACAGUGAAAUGGACAGAAGGGCAGAGCAA [G5A U7C G8A U10C C18G] | 2.35
47 | AGUUACCACCGGGAGCUUCAGCACAGUGAAAUGGACAGAAGGGCAGAGCAA [G5A U7C G8A U10C C18U] | 1.67
48 | AGUUACCACCGGGAGCUACAGCACAGUGAAAUGGACAGAAGGGCAGAGCAA [G5A U7C G8A U10C C18A] | 1.35
49 | AGUUACCACCGGGAGCUAAAGCACAGUGAAAUGGACAGAAGGGCAGAGCAA [G5A U7C G8A U10C C18A C19A] | 0.451
50 | AGUUACCACCGGGAGCUAGAGCACAGUGAAAUGGACAGAAGGGCAGAGCAA [G5A U7C G8A U10C C18A C19G] | 0.297
51 | AGUUACCACCGGGAGCUAUAGCACAGUGAAAUGGACAGAAGGGCAGAGCAA [G5A U7C G8A U10C C18A C19U] | 0.0739
